# Data taken from the supplement of paper PMC7877785.
# ± gives the uncertainty stated by the source.
# Assay: self-splicing fitness, log relative to wild type (ln ratio); higher = more splicing; Tetrahymena group I intron in knt gene, E. coli kanamycin selection, DiMSum; sequences stand for … in CUCUCU…GGAGGGAAAAGUUAUCAGGCAUGCACCUGGUAGCUAGUCUUUAAACCAAUAGAUUGCAUCGGUUUAAAAGGCAAGACCGUCAAAUUGCGGGAAAGGGGUCAACAGCCGUUCAGUACCAAGUCUCAGGGGAAACUUUGAGAUGGCCUUGCAAAGGGUAUGGUAAUAAGCUGACGGACAUGGUCCUAACCACGCAGCCAAGUCCUAAGUCAACAGAUCUUCUGUUGAUAUGGAUGCAGUUCACAGACUAAAUGUCGGUCGGGGAAGAUGUAUUCUUCUCAUAAGAUAUAGUCGGACCUCUCCUUAAUGGGAGCUAGCGGAUGAAGUGAUGCAACACUGGAGCCGCUGGGAACUAAUUUGUAUGCGAAAGUAUAUUGAUUAGUUUUGGAGUACUCGUGGUCG
# How it was run: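 A randomised library covering all eight P1ex-region intron nucleotides was built with the intron in the knt kanamycin-resistance gene on pET-22b(+) and held in E. coli BL21(DE3). Cells were grown overnight at 37°C or 30°C on LB agar, with or without 25 μg/mL kanamycin, plus 100 μg/mL carbenicillin, 50 μM IPTG and 0.2% rhamnose, and pooled colonies were amplicon-sequenced on an Illumina HiSeq 2500. DiMSum fitness is the error-weighted combination of wild-type-normalised replicate fold changes, kanamycin versus none.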
Sequence,self-splicing fitness (ln) (30 °C),self-splicing fitness (ln) (37 °C)
CAACAGCAAUAUUACGCGGA,-1.6 ± 0.1,-1.83 ± 0.091
CAACAGCAAUAUUACGCUAA,-2.36 ± 0.098,-2.11 ± 0.12
CAACAGCAAUAUUACGGCAC,-2.31 ± 0.13,-1.61 ± 0.13
CAACAGCAAUAUUACGGCGC,-1.94 ± 0.076,-1.24 ± 0.096
CAACAGCAAUAUUACGGCGU,-2.15 ± 0.091,-0.0717 ± 0.092
CAACAGCAAUAUUACGGGAG,-1.23 ± 0.051,-1.03 ± 0.063
CAACAGCAAUAUUACGGGCC,-5.11 ± 0.46,-1.48 ± 0.14
CAACAGCAAUAUUACGGGUU,-3.14 ± 0.15,-1.78 ± 0.12
CAACAGCAAUAUUACGGUAC,-4.95 ± 0.28,-3.34 ± 0.22
CAACAGCAAUAUUACGGUUA,-0.258 ± 0.048,0.275 ± 0.056
CAACAGCAAUAUUACGUAGG,-0.482 ± 0.055,0.249 ± 0.069
CAACAGCAAUAUUACGUGCU,-3.48 ± 0.13,-2.27 ± 0.12
CAAGAGCAAUAUUACGACCC,-2.19 ± 0.45,
CAAGAGCAAUAUUACGAGGG,-3.17 ± 0.16,-2.75 ± 0.2
CAAGAGCAAUAUUACGAGUA,,-1.56 ± 0.27
CAAGAGCAAUAUUACGAUCC,-2.49 ± 0.42,-2.15 ± 0.5
CAAGAGCAAUAUUACGAUGC,-2.54 ± 0.32,-2.31 ± 0.39
CAAGAGCAAUAUUACGAUUA,-1.92 ± 0.19,-0.907 ± 0.21
CAAGAGCAAUAUUACGCACC,-3.75 ± 0.35,
CAAGAGCAAUAUUACGCAGG,-2.62 ± 0.13,-2 ± 0.17
CAAGAGCAAUAUUACGCAGU,-4 ± 0.46,
CAAGAGCAAUAUUACGCCGA,-2.4 ± 0.23,-1.04 ± 0.32
CAAGAGCAAUAUUACGCUCU,-3.49 ± 0.32,-1.86 ± 0.27
CAAGAGCAAUAUUACGCUGC,-3.4 ± 0.41,-2.01 ± 0.24
CAAGAGCAAUAUUACGGAUG,-2.89 ± 0.1,-2.04 ± 0.12

Sequence,self-splicing fitness (ln) (30 °C),self-splicing fitness (ln) (37 °C)
CAAGAGCAAUAUUACGUCAA,-3.43 ± 0.43,-2.73 ± 0.25
CAAGAGCAAUAUUACGUCGG,-1.4 ± 0.087,-1.37 ± 0.11
CAAGAGCAAUAUUACGUGAG,-1.44 ± 0.087,-0.683 ± 0.11
CAAGAGCAAUAUUACGUGCU,-4.39 ± 0.31,-2.36 ± 0.17
CAAUAGCAAUAUUACGACAU,-3.694 ± 0.024,-2.38 ± 0.037
CAAUAGCAAUAUUACGAUUA,-1.2 ± 0.12,-0.352 ± 0.11
CAAUAGCAAUAUUACGCCAA,-2.96 ± 0.22,-2.76 ± 0.2
CAAUAGCAAUAUUACGCCUU,-2.1 ± 0.23,-0.997 ± 0.24
CAAUAGCAAUAUUACGCUAC,-3.14 ± 0.22,-2.08 ± 0.26
CAAUAGCAAUAUUACGGCAC,-3.57 ± 0.2,-3.06 ± 0.28
CAAUAGCAAUAUUACGGCAG,-0.535 ± 0.078,0.191 ± 0.11
CAAUAGCAAUAUUACGGCCG,0.102 ± 0.12,0.341 ± 0.16
CAAUAGCAAUAUUACGGCCU,-2.69 ± 0.21,-3.6 ± 0.39
CAAUAGCAAUAUUACGGCGC,-3.81 ± 0.35,-1.37 ± 0.19
CAAUAGCAAUAUUACGGGCC,,-1.94 ± 0.29
CAAUAGCAAUAUUACGGGGG,-2.64 ± 0.19,-2.01 ± 0.15
CAAUAGCAAUAUUACGGGGU,-4.27 ± 0.39,-2.48 ± 0.23
CAAUAGCAAUAUUACGGUAU,-3.15 ± 0.15,-2.42 ± 0.21
CAAUAGCAAUAUUACGUACC,-4.73 ± 0.32,-3.09 ± 0.32
CAAUAGCAAUAUUACGUACU,-3.33 ± 0.13,-1.8 ± 0.13
CAAUAGCAAUAUUACGUGCC,-2.98 ± 0.26,-3.02 ± 0.32
CAAUAGCAAUAUUACGUUUC,-4.35 ± 0.2,-3.13 ± 0.19
CACAAGCAAUAUUACGAAGU,-3.68 ± 0.16,-1.43 ± 0.12
CACAAGCAAUAUUACGACUU,-3.49 ± 0.18,-2.47 ± 0.21
CACAAGCAAUAUUACGAGCA,-2.96 ± 0.2,-2.28 ± 0.17

Sequence,self-splicing fitness (ln) (30 °C),self-splicing fitness (ln) (37 °C)
CACAAGCAAUAUUACGAGGU,-3.59 ± 0.17,-2.2 ± 0.18
CACAAGCAAUAUUACGAUAC,-3.58 ± 0.21,-2.5 ± 0.29
CACAAGCAAUAUUACGCGAA,-3.43 ± 0.17,-2.44 ± 0.14
CACAAGCAAUAUUACGCGAG,-1.89 ± 0.092,-0.699 ± 0.091
CACAAGCAAUAUUACGCGCA,-0.607 ± 0.095,-1.28 ± 0.1
CACAAGCAAUAUUACGCGGA,-3.17 ± 0.13,-1.08 ± 0.084
CACAAGCAAUAUUACGCGUC,-2.54 ± 0.13,-2.15 ± 0.18
CACAAGCAAUAUUACGCUAC,-3.18 ± 0.19,-2.26 ± 0.18
CACAAGCAAUAUUACGGAGU,-3.2 ± 0.13,-2.64 ± 0.15
CACAAGCAAUAUUACGGCGU,-1.66 ± 0.088,-1.57 ± 0.099
CACAAGCAAUAUUACGGGAU,-3.51 ± 0.14,-1.41 ± 0.097
CACAAGCAAUAUUACGGGCC,-3.78 ± 0.33,-2.01 ± 0.29
CACAAGCAAUAUUACGGGUC,-3.43 ± 0.1,-2.2 ± 0.12
CACAAGCAAUAUUACGGUUC,-4.1 ± 0.22,-2.66 ± 0.19
CACAAGCAAUAUUACGUCAA,-3.14 ± 0.17,-2.6 ± 0.2
CACAAGCAAUAUUACGUCGC,-3.09 ± 0.11,-2.41 ± 0.17
CACAAGCAAUAUUACGUCGU,-3.56 ± 0.13,-1.96 ± 0.11
CACAAGCAAUAUUACGUCUC,-3.1 ± 0.25,-2.5 ± 0.22
CACAAGCAAUAUUACGUGAU,-4.03 ± 0.15,-2.5 ± 0.15
CACAAGCAAUAUUACGUUAG,-1.37 ± 0.052,-0.63 ± 0.062
CACAAGCAAUAUUACGUUGA,-3.84 ± 0.2,-1.64 ± 0.1
CACCAGCAAUAUUACGACAU,-3.726 ± 0.018,-2.66 ± 0.035
CACCAGCAAUAUUACGAGAA,-3.55 ± 0.43,-2.33 ± 0.28
CACCAGCAAUAUUACGAGGC,-2.98 ± 0.17,-2.46 ± 0.19
CACCAGCAAUAUUACGAUGA,-1.9 ± 0.091,-2 ± 0.099

Sequence,self-splicing fitness (ln) (30 °C),self-splicing fitness (ln) (37 °C)
CACCAGCAAUAUUACGAUUA,-2.82 ± 0.14,-1.26 ± 0.11
CACCAGCAAUAUUACGCAGC,-3.44 ± 0.16,-1.77 ± 0.12
CACCAGCAAUAUUACGCCGU,-2.65 ± 0.13,-2.55 ± 0.18
CACCAGCAAUAUUACGCUAU,-4.03 ± 0.16,-2.21 ± 0.13
CACCAGCAAUAUUACGCUUC,-4.12 ± 0.34,-1.45 ± 0.13
CACCAGCAAUAUUACGGAAG,-0.975 ± 0.049,-0.0423 ± 0.072
CACCAGCAAUAUUACGGGAU,-3.34 ± 0.076,-1.9 ± 0.076
CACCAGCAAUAUUACGGGCC,-3.9 ± 0.19,-1.73 ± 0.14
CACCAGCAAUAUUACGGGGU,-4.29 ± 0.2,-3.49 ± 0.29
CACCAGCAAUAUUACGGUAC,-3.11 ± 0.11,-2.13 ± 0.1
CACCAGCAAUAUUACGGUGG,-2.71 ± 0.077,-1.59 ± 0.084
CACCAGCAAUAUUACGUGGU,-3.65 ± 0.1,-3.16 ± 0.14
CACCAGCAAUAUUACGUGUU,-4.11 ± 0.14,-2.67 ± 0.1
CACCAGCAAUAUUACGUUCC,-4.91 ± 0.41,-2.45 ± 0.26
CACGAGCAAUAUUACGAAUC,-3.87 ± 0.35,-2.93 ± 0.25
CACGAGCAAUAUUACGACAA,,-2.44 ± 0.28
CACGAGCAAUAUUACGACCG,-0.0895 ± 0.089,0.125 ± 0.12
CACGAGCAAUAUUACGCACG,-2.13 ± 0.21,-1.15 ± 0.21
CACGAGCAAUAUUACGCAGG,-3.49 ± 0.21,-2.55 ± 0.2
CACGAGCAAUAUUACGCCGA,-2.35 ± 0.39,
CACGAGCAAUAUUACGCCUG,-3.26 ± 0.23,-2.38 ± 0.17
CACGAGCAAUAUUACGCUAA,-2.95 ± 0.34,-2.75 ± 0.22
